# Molecular target: Aβ42
# Assay: SPR
binder,measurement,value
"HGVVFLHVTYV [Spike1058 (1058HGVVFLHVTYV1068), fragment of the SARS-CoV-2 spike protein]",Kd,82.6 nM

# — publication PMC10480042 (ACS applied materials & interfaces, 2023)
